According to patent US9650414B1, “Dual-action EP4 agonist—bisphosphonate conjugates and uses thereof” (Simon Fraser University, priority 2014, dated 2017):

How the values were obtained:
human Cathepsin K = target: T1, human Cathepsin K (Homo sapiens, UniProt P43235); test: Cathepsin K assay, hydrolysis of conjugates by human Cathepsin K; type: biochemical; conditions: conjugate 100 uM, CatK 0.2 uM, pH 5.5, 37 C
T1 construct: purchased Sigma-Aldrich; host or cells: E. coli
T1 sequence (P43235 115-329): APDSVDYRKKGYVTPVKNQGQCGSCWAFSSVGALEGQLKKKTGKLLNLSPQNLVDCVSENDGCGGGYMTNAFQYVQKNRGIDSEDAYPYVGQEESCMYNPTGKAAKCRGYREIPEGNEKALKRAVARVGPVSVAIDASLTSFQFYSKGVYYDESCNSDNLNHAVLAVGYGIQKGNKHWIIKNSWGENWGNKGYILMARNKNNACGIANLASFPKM
Experimental: (§1) Cathepsin K rat (recombinant, expressed in E. coli) was obtained from Merck as a gift. […] Enzyme activity was assayed using the Cathepsin K standard substrate Z-Leu-Arg-AMC. […] The appearances of released self-immolative linker 4-aminobenyl alcohol were recorded.

rat Cathepsin K = target: T2, rat Cathepsin K (Rattus norvegicus, UniProt O35186); test: Cathepsin K assay, hydrolysis of conjugates by rat Cathepsin K; type: biochemical; conditions: conjugate 100 uM, CatK 0.2 uM, pH 5.5, 37 C
T2 construct: Merck (gift); host or cells: E. coli
T2 sequence (O35186 115-329): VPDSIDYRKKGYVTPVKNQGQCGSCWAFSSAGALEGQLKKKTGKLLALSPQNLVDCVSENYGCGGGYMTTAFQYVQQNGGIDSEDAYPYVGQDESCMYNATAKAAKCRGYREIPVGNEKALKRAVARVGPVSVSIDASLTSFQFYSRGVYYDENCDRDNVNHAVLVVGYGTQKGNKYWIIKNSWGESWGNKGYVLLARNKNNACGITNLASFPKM
Experimental: as §1

[1] = Analysis of the blood samples, level of tritiated 17a in blood; type: in vivo; conditions: rat, tail vein bolus, [3H]-17a
Experimental: (§2) Female Sprague Dawley rats (Charles River) were about 13 weeks old when received. They were acclimatized to the facility and operators, and were randomly divided to five groups: 6 hour, 1-, 7, 14 and -28 day. Dose: [^3H]-17a: 8.90 μCi/rat, [^14C]-17a 1.77 uCi/rat, and 17a 5.0 mg/kg. Formulation: conjugate 17a was suspended in Poloxamer 188 solution 10%, and adjusted to pH 8.0 by NaHCO3, then diluted by equal volume of PBS. The dosing was done with a fixed volume of 500 μL. The bolus injection and blood sampling were done via the tail vein. […] Long bones were harvested and counted.
Three Female Sprague Dawley rats (Charles River) were about 23 weeks old when received. They were acclimatized to the facility and operators. Dose: [^3H]-17a: 31.0 μCi/rat. Blood samples (0.5 mL per time point per rat) were taken from the 6-hour group of rats 0.5, 1, 2, 4, 6 hour and placed in heparinized micro-centrifuge tubes. Blood samples from the (500 μL) were centrifuged at ˜5000×G until plasma had separated. 100 μL of the supernatant was analyzed in a Harvey OX-300 biological oxidizer using the four-minute program. The collected scintillation mixture was counted on a Beckman Coulter LS-6500 scintillation counter. The counting time was two minute.

[2] = Rat organ distribution, uptake and release of conjugate 17a in rat bone; type: in vivo
Experimental: as §2
After 6 h, 1, 7, 14, 28 days three animals were weighed, sacrificed by CO2 and blood, fat, muscle, brain, heart, kidney, spleen, liver and bone were dissected and cleaned free of any loose tissue. The amount of radioactivity was determined by incineration in a R. J. Harvey OX300 Biological Oxidizer. The percent of the compound retained in the skeleton and the other organs at each time point was calculated by measuring activity per gram (μCi/g) in the collected samples and extrapolating to total activity retained in the skeleton and the other organs, the weight of skeleton was calculated by 8% of the body weight, the weight of the other organs was measured by balance. […] Table 3 and FIGS. 7A-E show rat organ distribution, uptake and release of a representative conjugate compound 17a.

Structure (SMILES): N=C(N)NCCC[C@H](NC(=O)[C@@H]1CCCN1C(=O)OCc1ccccc1)C(=O)Nc1ccc(COC(=O)NCCCC(O)(P(=O)(O)O)P(=O)(O)O)cc1 [Compound 6, (4-((((4-((S)-2-((S)-1-((benzyloxy)carbonyl)pyrrolidine-2-carboxamido)-5-guanidinopentanamido)benzyl)oxy)carbonyl)amino)-1-hydroxybutane-1,1-diyl)bis(phosphonic acid)]
- hydrolysis by Hum CatK (human Cathepsin K; 1 hour): 90%
- hydrolysis by Hum CatK (human Cathepsin K; 2 hour): 98%
- hydrolysis by Rat CatK (rat Cathepsin K; 1 hour): 5%
- hydrolysis by Rat CatK (rat Cathepsin K; 2 hour): 10%
- hydrolysis by Rat CatK (rat Cathepsin K; 20 hour): 52%

Structure (SMILES): CCOC(=O)CCCCCCN1C(=O)CC[C@@H]1/C=C/[C@@H](OC(=O)Cc1ccc(COC(=O)N[C@@H](CC(C)C)C(=O)N[C@@H](CCCNC(=N)N)C(=O)Nc2ccc(COC(=O)NCCCC(O)(P(=O)(O)O)P(=O)(O)O)cc2)cc1)C(F)(F)c1ccccc1 [Compound 17a, (4-((((4-((S)-2-((S)-2-((((4-(2-(((R,E)-4-((R)-1-(7-ethoxy-7-oxoheptyl)-5-oxopyrrolidin-2-yl)-1,1-difluoro-1-phenylbut-3-en-2-yl)oxy)-2-oxoethyl)benzyl)oxy)carbonyl)amino)-4-methylpentanamido)-5-guanidinopentanamido)benzyl)oxy)carbonyl)amino)-1-hydroxybutane-1,1-diyl)bis(phosphonic acid)]
- clearance from circulating blood, t1/2 [1]: ~30 min
- behavior or reaction of dosed animals ([2]; 17a 5.0 mg/kg, tail vein bolus): no unusual behavior or reaction to the drug treatment
- distribution of radio-activity ([2]; at 6 hours): most radio-activity was observed in liver and bones
- uptake ([2]; by 3H): 2%
- uptake ([2]; by 14C): ~5%
- distribution of radio-activity ([2]; by 7 days): only bones had a significant amount of radio-activity
- Percentage of dose in Bone ([2]; tail vein bolus, 3H, 1-day): 2.12%
- Percentage of dose in Brain ([2]; tail vein bolus, 3H, 1-day): 0.025%
- Percentage of dose in Heart ([2]; tail vein bolus, 3H, 1-day): 0.021%
- Percentage of dose in Kidney ([2]; tail vein bolus, 3H, 1-day): 0.11%
- Percentage of dose in Liver ([2]; tail vein bolus, 3H, 1-day): 2.33%
- Percentage of dose in Spleen ([2]; tail vein bolus, 3H, 1-day): 0.22%
- Percentage of dose in Bone ([2]; tail vein bolus, 3H, 6-hour): 2.10%
- Percentage of dose in Brain ([2]; tail vein bolus, 3H, 6-hour): 0.022%
- Percentage of dose in Heart ([2]; tail vein bolus, 3H, 6-hour): 0.025%
- Percentage of dose in Kidney ([2]; tail vein bolus, 3H, 6-hour): 0.21%
- Percentage of dose in Liver ([2]; tail vein bolus, 3H, 6-hour): 8.95%
- Percentage of dose in Spleen ([2]; tail vein bolus, 3H, 6-hour): 0.35%
- Percentage of dose in Bone ([2]; tail vein bolus, 3H, 7-day): 1.30%
- Percentage of dose in Brain ([2]; tail vein bolus, 3H, 7-day): LOD
- Percentage of dose in Heart ([2]; tail vein bolus, 3H, 7-day): 0.014%
- Percentage of dose in Kidney ([2]; tail vein bolus, 3H, 7-day): 0.053%
- Percentage of dose in Liver ([2]; tail vein bolus, 3H, 7-day): 0.48%
- Percentage of dose in Spleen ([2]; tail vein bolus, 3H, 7-day): 0.076%
- Percentage of dose in Bone ([2]; tail vein bolus, 3H, 14-day): 0.80%
- Percentage of dose in Brain ([2]; tail vein bolus, 3H, 14-day): LOD
- Percentage of dose in Heart ([2]; tail vein bolus, 3H, 14-day): LOD
- Percentage of dose in Kidney ([2]; tail vein bolus, 3H, 14-day): 0.026%
- Percentage of dose in Liver ([2]; tail vein bolus, 3H, 14-day): 0.30%
- Percentage of dose in Spleen ([2]; tail vein bolus, 3H, 14-day): 0.039%
- Percentage of dose in Bone ([2]; tail vein bolus, 3H, 28-day): 0.74%
- Percentage of dose in Brain ([2]; tail vein bolus, 3H, 28-day): LOD
- Percentage of dose in Heart ([2]; tail vein bolus, 3H, 28-day): LOD
- Percentage of dose in Kidney ([2]; tail vein bolus, 3H, 28-day): 0.017%
- Percentage of dose in Liver ([2]; tail vein bolus, 3H, 28-day): 0.08%
- Percentage of dose in Spleen ([2]; tail vein bolus, 3H, 28-day): 0.037%
- Percentage of dose in Bone ([2]; tail vein bolus, 14C, 1-day): 4.63%
- Percentage of dose in Brain ([2]; tail vein bolus, 14C, 1-day): 0.012%
- Percentage of dose in Heart ([2]; tail vein bolus, 14C, 1-day): 0.009%
- Percentage of dose in Kidney ([2]; tail vein bolus, 14C, 1-day): 0.047%
- Percentage of dose in Liver ([2]; tail vein bolus, 14C, 1-day): 2.50%
- Percentage of dose in Spleen ([2]; tail vein bolus, 14C, 1-day): 0.23%
- Percentage of dose in Bone ([2]; tail vein bolus, 14C, 6-hour): 5.52%
- Percentage of dose in Brain ([2]; tail vein bolus, 14C, 6-hour): 0.014%
- Percentage of dose in Heart ([2]; tail vein bolus, 14C, 6-hour): 0.017%
- Percentage of dose in Kidney ([2]; tail vein bolus, 14C, 6-hour): 0.11%
- Percentage of dose in Liver ([2]; tail vein bolus, 14C, 6-hour): 7.03%
- Percentage of dose in Spleen ([2]; tail vein bolus, 14C, 6-hour): 0.34%
- Percentage of dose in Bone ([2]; tail vein bolus, 14C, 7-day): 3.51%
- Percentage of dose in Brain ([2]; tail vein bolus, 14C, 7-day): LOD
- Percentage of dose in Heart ([2]; tail vein bolus, 14C, 7-day): LOD
- Percentage of dose in Kidney ([2]; tail vein bolus, 14C, 7-day): 0.020%
- Percentage of dose in Liver ([2]; tail vein bolus, 14C, 7-day): 0.61%
- Percentage of dose in Spleen ([2]; tail vein bolus, 14C, 7-day): 0.086%
- Percentage of dose in Bone ([2]; tail vein bolus, 14C, 14-day): 2.52%
- Percentage of dose in Brain ([2]; tail vein bolus, 14C, 14-day): LOD
- Percentage of dose in Heart ([2]; tail vein bolus, 14C, 14-day): LOD
- Percentage of dose in Kidney ([2]; tail vein bolus, 14C, 14-day): 0.013%
- Percentage of dose in Liver ([2]; tail vein bolus, 14C, 14-day): 0.27%
- Percentage of dose in Spleen ([2]; tail vein bolus, 14C, 14-day): 0.050%
- Percentage of dose in Bone ([2]; tail vein bolus, 14C, 28-day): 2.44%
- Percentage of dose in Brain ([2]; tail vein bolus, 14C, 28-day): LOD
- Percentage of dose in Heart ([2]; tail vein bolus, 14C, 28-day): LOD
- Percentage of dose in Kidney ([2]; tail vein bolus, 14C, 28-day): 0.0092%
- Percentage of dose in Liver ([2]; tail vein bolus, 14C, 28-day): 0.10%
- Percentage of dose in Spleen ([2]; tail vein bolus, 14C, 28-day): 0.039%

Structure (SMILES): CC(C)C[C@H](NC(=O)OCc1ccccc1)C(=O)N[C@@H](CCCNC(=N)N)C(=O)Nc1ccc(COC(=O)NCCCC(O)(P(=O)(O)O)P(=O)(O)O)cc1 [Compound 7]
- hydrolysis by Hum CatK (human Cathepsin K; 1 hour): 66%
- hydrolysis by Hum CatK (human Cathepsin K; 2 hour): 75%
- hydrolysis by Hum CatK (human Cathepsin K; 3 hour): 79 (3 hour) %
- hydrolysis by Rat CatK (rat Cathepsin K; 1 hour): 73%
- hydrolysis by Rat CatK (rat Cathepsin K; 2 hour): 80%
- hydrolysis by Rat CatK (rat Cathepsin K; 20 hour): 95%

Structure (SMILES): N=C(N)NCCC[C@H](NC(=O)[C@@H]1CCCN1C(=O)CNC(=O)OCc1ccccc1)C(=O)Nc1ccc(COC(=O)NCCCC(O)(P(=O)(O)O)P(=O)(O)O)cc1 [Compound 8, (4-((((4-((S)-2-((S)-1-(((benzyloxy)carbonyl)glycyl)pyrrolidine-2-carboxamido)-5-guanidinopentanamido)benzyl)oxy)carbonyl)amino)-1-hydroxybutane-1,1-diyl)bis(phosphonic acid)]
- hydrolysis by Hum CatK (human Cathepsin K; 1 hour): 91%
- hydrolysis by Hum CatK (human Cathepsin K; 2 hour): 100%
- hydrolysis by Rat CatK (rat Cathepsin K; 1 hour): 11%
- hydrolysis by Rat CatK (rat Cathepsin K; 2 hour): 20%
- hydrolysis by Rat CatK (rat Cathepsin K; 20 hour): 80%
